Reference: US20230099801A1, “RESTORATION OF T CELL ACTIVITY VIA THE CD39/CD73 AXIS” (INNATE PHARMA, priority 2017, published 2023)

Key:
[1] = molecular target: T1, Human CD39-L1 (NTPDase2, ENTPD2) (Homo sapiens, UniProt Q9Y5L3); assay: ELISA titration on CD39-L1; format: binding
T1 sequence (Q9Y5L3 1-472 isoform Q9Y5L3-2): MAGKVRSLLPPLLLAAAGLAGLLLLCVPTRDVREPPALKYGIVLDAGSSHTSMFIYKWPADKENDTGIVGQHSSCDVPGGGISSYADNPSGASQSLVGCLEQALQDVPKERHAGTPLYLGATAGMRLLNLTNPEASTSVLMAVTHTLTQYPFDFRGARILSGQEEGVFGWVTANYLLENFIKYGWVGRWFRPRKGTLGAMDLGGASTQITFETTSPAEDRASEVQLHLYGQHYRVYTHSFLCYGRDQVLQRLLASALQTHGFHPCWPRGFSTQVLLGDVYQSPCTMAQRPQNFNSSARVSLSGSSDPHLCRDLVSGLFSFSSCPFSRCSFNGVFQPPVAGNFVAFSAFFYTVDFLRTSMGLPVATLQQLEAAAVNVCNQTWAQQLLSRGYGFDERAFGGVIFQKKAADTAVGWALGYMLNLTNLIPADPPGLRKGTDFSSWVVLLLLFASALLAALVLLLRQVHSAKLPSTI
Description: (§1) Wells were washed in TBS Tween 20, and further saturated 2H at RT in TBS Blocking buffer. Dose range concentration of primary antibody was incubated in TBS blocking buffer for 2h at RT. Wells were washed in TBS Tween 20. […] Optical density was measured on Enspire™ at OD=450.

[2] = molecular target: T2, Human CD39-L3 (NTPDase3, ENTPD3) (Homo sapiens, UniProt O75355); assay: ELISA titration on CD39-L3; format: binding
T2 sequence (O75355 1-529): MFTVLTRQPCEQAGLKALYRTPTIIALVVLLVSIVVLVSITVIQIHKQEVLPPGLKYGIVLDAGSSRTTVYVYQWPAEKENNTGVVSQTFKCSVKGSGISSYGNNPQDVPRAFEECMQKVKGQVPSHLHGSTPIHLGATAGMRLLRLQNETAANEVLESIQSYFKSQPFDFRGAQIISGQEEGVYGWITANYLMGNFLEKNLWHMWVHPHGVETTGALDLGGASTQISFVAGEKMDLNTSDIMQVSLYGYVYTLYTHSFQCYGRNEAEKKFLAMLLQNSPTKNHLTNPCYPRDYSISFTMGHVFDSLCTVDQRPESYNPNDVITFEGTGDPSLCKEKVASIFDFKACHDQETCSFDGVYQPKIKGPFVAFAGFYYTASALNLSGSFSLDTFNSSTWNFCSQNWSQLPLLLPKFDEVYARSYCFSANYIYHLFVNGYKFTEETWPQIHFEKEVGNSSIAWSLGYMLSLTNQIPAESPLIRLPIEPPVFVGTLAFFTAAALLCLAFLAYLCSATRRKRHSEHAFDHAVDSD
Description: as §1

B1: I-394: anti-CD39 antibody, VH SEQ ID NO: 6, VL SEQ ID NO: 7; heavy/light chains SEQ ID NOS: 52 and 53 (antibody)
heavy: EVQLQQSGPELVKPGASVKMSCKASGYTFTDYNMHWVKQSHGRTLEWIGYIVPLNGGSTFNQKFKGRATLTVNTSSRTAYMELRSLTSEDSAAYYCARGGTRFAYWGQGTLVTVSAASTKGPSVFPLAPSSKSTSGGTAALGCLVKDYFPEPVTVSWNSGALTSGVHTFPAVLQSSGLYSLSSVVTVPSSSLGTQTYICNVNHKPSNTKVDKRVEPKSCDKTHTCPPCPAPEAEGAPSVFLFPPKPKDTLMISRTPEVTCVVVDVSHEDPEVKFNWYVDGVEVHNAKTKPREEQYNSTYRVVSVLTVLHQDWLNGKEYKCKVSNKALPSSIEKTISKAKGQPREPQVYTLPPSREEMTKNQVSLTCLVKGFYPSDIAVEWESNGQPENNYKTTPPVLDSDGSFFLYSKLTVDKSRWQQGNVFSCSVMHEALHNHYTQKSLSLSPGK
light: DIVLTQSPASLAVSLGQRATISCRASESVDNFGVSFMYWFQQKPGQPPNLLIYGASNQGSGVPARFRGSGSGTDFSLNIHPMEADDTAMYFCQQTKEVPYTFGGGTKLEIKRTVAAPSVFIFPPSDEQLKSGTASVVCLLNNFYPREAKVQWKVDNALQSGNSQESVTEQDSKDSTYSLSSTLTLSKADYEKHKVYACEVTHQGLSSPVTKSFNRGEC
modifications: Chimeric homo sapiens mus musculus
- binding to CD39-L1 in ELISA [1]: not to any of the human isoforms
- binding to CD39-L3 in ELISA [2]: not to any of the human isoforms
